Laboratory results taken from the DeepSol protein solubility set.

assay: soluble on expression in E. coli; label from the status in PepcDB or PDB records

Sequence	soluble on expression in E. coli
MTATQGKCPVMHGGATTVNISTAEWWPKALNLDILSQHDRKTNPMGPDFNYQEEVQKLDAALKQDLQALMTDSQDWWPADWGHYGGLMIRLTWHAAGTYRIADGRGGAGTGNQRFAPLNSWPDNTNLDKARRLLWPIKQKYGNKLSWADLIAYAGTIAYESMGLKTFGFAFGREDIWHPEKDIYWGPEKEWFPPSTNPNSRYTGDRELENPLAAVTMGLIYVNPEGVDGNPDPLKTAHDVRVTFARMAMNDEETVALTAGGHTVGKCHGNGNAALLGPEPEGADVEDQGLGWINKTQSGIGRNAVTSGLEGAWTPHPTQWDNGYFAVCSLNYDWELKKNPAGAWQWEPINPREEDLPVDVEDPSIRRNLVMTDADMAMKMDPEYRKISERFYQDPAYFADVFARAWFKLTHRDMGPKARYIGPDVPQEDLIWQDPIPAGNRNYDVQAVKDRIAASGLSISELVSTAWDSARTYRNSDKRGGANGARIRLAPQKDWEGNEPDRLPKVLAVLEGISAATGATVADVIVLAGNVGVEQKARAAGVEIVLPFAPGRGDATAEQTDTESFAVLEPIHDAIATGSSRTMRQRLKNCCLIATQLLGLTAPEMTVLIGGLRVLGTNHGGTKHVVFTDREGVLTNDFFVNLTDMNYLWKPAGKNLYEICDRKTNQVKWTATRVDLVFGSNSILRAYSELYAQDDNKEKFVRDFVAAWTKVMNADRFDLD	soluble
MGSDKIHHHHHHMGNPRAFLTIHRQEAGYRPVHERIDDFSEVEQTLNSGDRRTQASRCMDCGVPFCHWACPLGNKQPEWQDLLYKGRYKEAYHVLEQTDDFPEFTGRVCPALCEKSCVLKLSCDEPVTIRENEAAIVEAAFREGYVQPIQPVRNGKKVAVIGSGPAGLTVANQLNRKGYEVTVFEKDELPGGLLRFGIPNFKLGKHIIDRRIRIMEQEGILFRVNTMVGKEILAKDVVKDFDAVCVAIGAEVPRDLSIEGRHLRGVHFALELLSQQNRILEGIPIPPKSQINCKGKKVLVIGGGDTGSDCVGTANRHGAACVTQIEIMPQPPVGQNPATPWPMYPQVLKTSSSHEEGCIRRWNLASNRFIGEKNNLIGVEVEEVEWVPSPDGGRPQMRQTGKKEIIEADLVFLAMGFLHPVQEGLIKELRLATDNRNNIAVDNAGYTANSNLFACGDAVSGASLVVKAMASGRNVARSIDRFLQTN	not soluble
MGSDKIHHHHHHMRQFAKPTIVVSKCLEFDACRYNGEMIPDVTIRNLQPFVTFIPVCPEVEIGLGTPRETIRIVEEKGVNKLMQPSTREDLTGKMEQFSNKFLQTISDVDGFILKNRSPSCGTRDVKIYSGFEKAPAKGKGPGLFGGAVIKNFSHLPIEEEGRLSNFIIREHFLTRLFTIAYYKMMKRNKNMKDLVSFQSDNKYLFMAYNQVKQKELGRIIANHKNEKIEVVFENYEKTLYELFMRTPRYTSNVNVCEHIFGYFKTKLKKQEKDHFLDLIQKYKEKKIPLSSLLAILKSWALRFDEKYLLRQTYFEPYPEALVEISDSGKGRDY	not soluble
MHKSNNKIRQRIIIKLSGAGLTKENSQPFSNDFFETIINQLKVLKESYQVGIVIGGGNIIRGNNCQEFNIAEYHGHQLGIIATVVNGYFLKAKLDAHNLKSALLSAISCPSLAVQILSQQTIDKAFEENDFVIFSGGTGNPYFSTDTALALRAVQTKAVAILIGKNGVDGVYTADPKKDKNATFLPTLNYDHAIKNDLKIMDITAFTMCKENNLKIIIFNINAENALLDALNKKGRFTIIENNLEHHHHHH	soluble
PRRTDADGEKMLAYLNTLYADKQAFELRADSLRKEVRQRLGIDTLLAQCVNSTPILSKIRKFDGYTVQNFALETLPGLYVCGSVYTPQSKGKHALIICPNGHFGGGRYREDQQQRMGTLARMGAVCVDYDLFGWGESILQVGSTAHRSSAAHTIQAMNGLLILDYMLASRKDIDTKRIGANGGSGGGTHTVLLTTLDDRFTASAPVVSLASHFDGGCPCESGMPIQLSAGGTCNAELAATFAPRPQLVVSDGGDWTASVPALEFPYLQRIYGFYDAKDNVTNVHLPKEKHDFGPNKRNAVYDFFAEVFD	not soluble
MEFRQLKYFIAVAEAGNMAAAAKRLHVSQPPITRQMQALEADLGVVLLERSHRGIELTAAGHAFLEDARRILELAGRSGDRSRAAARGDVGELSVAYFGTPIYRSLPLLLRAFLTSTPTATVSLTHMTKDEQVEGLLAGTIHVGFSRFFPRHPGIEIVNIAQEDLYLAVHRSQSGKFGKTCKLADLRAVELTLFPRGGRPSFADEVIGLFKHAGIEPRIARVVEDATAALALTMAGAASSIVPASVAAIRWPDIAFARIVGTRVKVPISCIFRKEKQPPILARFVEHVRRSAKD	soluble
MATPLWQTIYNNAVLLPESPKAIVHFLGGAFIAAAPQVTYRRLLEGLGDRGFAVIATPFINTFDHTTLADEVGRSYRLAYERLLALGLISPELPIFGVGHSMGSKLHLLMGCAQTSDRRGNVLLAFNNYSARRSIPLLGQLAPALDVTVEFSPSPARTLRLIRDRYSVANNLLVKFRNDEIDQTRDLIGALRDRFPETSEWLRLSGNHLTPVGQSLPQQTGLAWLDGVSQLASRELGRDLEVVTTAIADWCDRQLTAPATVVLEHHHHHH	not soluble
MDHLPIFCQLRDRDCLIVGGGDVAERKARLLLEAGARLTVNALTFIPQFTVWANEGMLTLVEGPFDETLLDSCWLAIAATDDDTVNQRVSDAAESRRIFCNVVDAPKAASFIMPSIIDRSPLMVAVSSGGTSPVLARLLREKLESLLPQHLGQVARYAGQLRARVKKQFATMGERRRFWEKFFVNDRLAQSLANADEKAVNATTERLFSEPLDHRGEVVLVGAGPGDAGLLTLKGLQQIQQADIVVYDRLVSDDIMNLVRRDADRVFVGKRAGYHCVPQEEINQILLREAQKGKRVVRLKGGDPFIFGRGGEELETLCHAGIPFSVVPGITAASGCSAYSGIPLTHRDYAQSVRLVTGHLKTGGELDWENLAAEKQTLVFYMGLNQAATIQEKLIAFGMQADMPVALVENGTSVKQRVVHGVLTQLGELAQQVESPALIIVGRVVALRDKLNWFSNH	soluble
MGSDKIHHHHHHMFHTIDFSDIFSSDYSNKISFKKGEIIHSYRDYEEKTPQIGAILEGTAVLEGPTNEGRWMINALIGQHSLFGMESLLETKTAPELTEYRVRALENGTVLFIDREFLLNYLYANPQFFHLILDEVIVRYLFTSKNYKNINQAPIVKVTRILVEIIELLHLHQTEGAIELPVYVTQTFLADYCRSSRARVTEVLEELRESGLLLSKKPITISSHENLLNQIDSFQTGNGLLTR	not soluble
MGSDKIHHHHHHMDYTPRLQPARLIKRYKRFLADVVTPEGETLTLHCANTGAMTGCATPGDTVWYSTSDNPKRKYPQSWELTETQQNHWICVNTLRANTLLYEALLENRIEELAGYSDIKTEVKYGTENSRIDLLLQAPDRIDCYIEVKSVTLLQHECGYFPDAVTLRGQKHLRELQQMVSNGKRAVLFFAVLHSGIQQVSPARHIDSRYAELFIEAQQAGVEILCYGSTLCPDGIKLTNKLPLLG	not soluble
MTDKKPVIVYGVSGYTGRLVCEYLREFNIPFIAAGRDKKRIQEVLDRIPGLDTVDHEVVEVEHTVPALTELFSGARVVSNMVGPFIKHGAIVVEAALAAGCHYTDTTGEQDWVLDVQAKFGEKFAEKGLLLSPGVAQMYTTGEIAANIAL	not soluble
MGSDKIHHHHHHAQTDPSQLKKEGSDAFNAKNYPVAYAKFSEYLKQTNNQDSAIAYYCGMAADEVKKYAEAVTFFDIAIQKKFNIGNAYARKALALDAMKKTDEYVATLEEGLKVDPDNKTMIKNYGLHYLKAGIAAQKAGKVEEAEECFKKVIPLDHKTYKTNALYSLGVLCYNDGANILKKAAPLANSDADKYAAEKEKADGRFKEAIGYLEEATKVSPEDTKSKTMLSQVQAAMK	not soluble
